Assay results as given in the DeepSol protein solubility set.

Test: soluble on expression in E. coli; label from the status in PepcDB or PDB records

Row | Sequence | soluble on expression in E. coli
1 | MAHHHHHHMKGVSIRQLDAIIILDSDGKRIAVKYYNDQFLPKGESKLIHKSPSRDSISYPFEDTYNNLRTVEDQKMFENDITEKARKLGGNSSETEVLILSKFTVLYLLINDVSIYIVGDEGDNEIILHEIMQTVQQCLESVTNNQIGRKQLLEKLDSIYLILDEIADSGIIMETNPNVIINRLYMHESDLQEHTPLNQAISSAKENIIRSLLSGT | soluble
2 | MGSDKIHHHHHHMKIVTYSKNVFIPLTRNCRNRCDYCGFRSEEIGVMSAEEVRKILSAARGAKEALFTFGERPDEVYPEFKAMLLEMGYKSMVDYILEMNKIAVEMGFLPHTNAGILSKEEMRKLKPYNASMGLMLEQAVELECHANSPGKKPEVRIKMIRDAGKLQIPFTTGILVGIGEGREDRLYSLEIIAEIQDNYGHIQEVIVQNFKPKKGTPMENTPPPTLEEMLEAVKAAREILPQEVAIQIPPNLVDDIYPFLKAGANDVGGISNVTHDYINPESPWPEVERLERALRGEFILKERLPIYPRFVKLKWYGEALEPLIEKYSDADGYARP | not soluble
3 | MSEDHHDEEQFDSAESGAAATFPKQCSALRKNEHVMIRGRPCKIVEMSTSKTGKHGHAKVHMVAIDIFTTKKLEDICPSTHNMDVPVVKRREYILMSIEDGFCSLMDPESCELKDDLKMPEGDLGNTIREALEKDEGSVLVQVVAACGEEAILGYKISTKE | not soluble
4 | MEESDVLISLIEILKIHQKVIDYDKFKDPEDYTPAIRSLATLELMFEYLIKESNTIFENAAVIVYTIVAKHPFFNGNKRTGYEAMNFIIEDGGYGFTSTDEEMIEFIIRVATTENEMSIEEIKEWIIRHTEKILLEHHHHHH | soluble
5 | MGSDKIHHHHHHMIINNVNMVLSQEIIHGSLEVRNGVIHHINDRPSRHPGALDGEQAWLLPGLVELHTDNLDKCFTPRPGVNWPSEAAMRNHDALIISSGITTVLDAVAVGDVRDGGHRLENLRRMTDAVLYSQQHGTNRADHHLHLRCELPHQDTFPLFEQLADIPLVALASLMDHSPGQRQFSSQEKYHQYYKGKYHLNDEQMAAFEEEQLAGSRRWSQPNREAIVRLCHEKGITLASHDDATSEHITESHQHRVAIAEFPTTEIAAQQAHGVGMNVLMGAPNVICGGSHSGNVSAHHLATLGVLHILSSDYYPASLLEAAFMIAEDERNDYDLPRAIALVSNNPAQALKFDDRGCIEEGRRADLLLVKRHAPQMKLMRVWRQGVRVF | not soluble
6 | MMDASKELQVLHIDFLNQDNAVSHHTWEFQTSSPVFRRGQVFHLRLVLNQPLQSYHQLKLEFSTGPNPSIAKHTLVVLDPRTPSDHYNWQATLQNESGKEVTVAVTSSPNAILGKYQLNVKTGNHILKSEENILYLLFNPWCKEDMVFMPDEDERKEYILNDTGCHYVGAARSIKCKPWNFGQFEKNVLDCCISLLTESSLKPTDRRDPVLVCRAMCAMMSFEKGQGVLIGNWTGDYEGGTAPYKWTGSAPILQQYYNTKQAVCFGQCWVFAGILTTVLRALGIPARSVTGFDSAHDTERNLTVDTYVNENGEKITSMTHDSVWNFHVWTDAWMKRPDLPKGYDGWQAVDATSQERSQGVFCCGPSPLTAIRKGDIFIVYDTRFVFSEVNGDRLIWLVKMVNGQEELHVISMETTSIGKNISTKAVGQDRRRDITYEYKYPEGSSEERQVMDHAFLLLSSEREHRRPVKENFLHMSVQSDDVLLGNSVNFTVILKRKTAALQNVNILGSFELQLYTGKKMAKLCDLNKTSQIQGQVSEVTLTLDSKTYINSLAILDDEPVIRGFIIAEIVESKEIMASEVFTSFQYPEFSIELPNTGRIGQLLVCNCIFKNTLAIPLTDVKFSLESLGISSLQTSDHGTVQPGETIQSQIKCTPIKTGPKKFIVKLSSKQVKEINAQKIVLITK | soluble
7 | MSLAQNSSIDYPSYQKRNTDALEISRIVRNDTATILYMDAYSRPNYWIRLASELSLHGVQSGKKYPVIRSQGFELDKQVYMPASGNVTFTLQFAPIDPQDRTIDFVESNNEEDFRIEGICLDASVPKKKVHCHLAGKMANRPQTSRLILIESNKNTRGTPWISIPVRNGVFEYDFYTDHEKAYELICWDDLLNGCWYPVTFFAENGTVSFTISAIDARPPYRIETLNSLTTALRLFEAEGKDKFSFDELNARRDTLEKYGRFESEAMQALWKKFDQVKDNPEERNKLFRERDRLEESGEAFTKEAKALIKEREQLFRKKVIWETEQASQHPSLVGLFILKMKVENARKDEDVTPYLEAFQKVYASRYPEHPYTREMQMFIDNNQPKTGNRFIDFSAPDLNGNMVQLSEQIRGKVALIDLWASWCGPCRTTSKQLIPIYEKYKDRGFTVIGVAREQNSDIRMREAIRKDGYPWLNLIELNDVQQIWSKYRIPNAAGGTFLVNAQGIILAVNPTAEEVERILQKELEGHHHHHH | soluble
8 | MNNVIIIGGGIAGLCAAISLQKIGLDVKVYDKNTEPTVAGAGIIIAPNAMQALELYGISKKIKKFGNESDGFNLVSKKGTTFNKLIIPTCYPKMYSIHRKDLHQLLLSELKEDTVKWGKECVKIEQNEENALKIVFQDGSEALGNILIAADGIHSIVRKQVTQGDNYRYAGYTCWRGVTPTKNLSLTNDFIETWGTNGRFGIVPLPNNEVYWYALINAKARDPKYKAYTTTDLYNHFKTYHNPIPSILQNASDIDMIHRDIIDITPMKQFFDKRIVFIGDAAHALTPNLGQGACQAIEDAIILAECIKNNAYYRQAFTEFEQKRRDRIEKISNTAWKVGKIAQIESKPLTIVRNKVMKRIPKWISERQAHELYRFHL | not soluble
9 | PDPVRLEIFKNLYQFIAEQMGIVLQNTAASVNIKERLDFSCAIFDSSGLLVANAPHIPVHLGSMSESVCSLINDKGETIKPGNVYLSNNPYNGGTHLPDVTAITPVFPETQENPPTPLFYVASRGHQADIGGITPGSMPPHSTTVEEEGILFDNFLLVEAGNFQEIQVRNLLANHLYPARNPDQNIADFQAQIAANERGVKELHKMVAQYGLPIVQVYMKFVQDNAGESVRRAIDVLKDGTFIYEMDGGAKIQVKVTINREKRSAEIDFTGTSEQLNSNFNAPKAVTQAAVLYVFRTLVDDNIPLNAGCLKPLDIIVPEGCMLNPTYPSAVVAGNVETSQTIVDALYGALSVMAASQGTMNNFTFGSDRYQYYETICGGSGAGSNFDGTDAVHTHMTNSLLTDPEVLETRYPVLVESFSLRSDSGGKGKYSGGNGVVRRIRFLEPMTANILSGHRLVPPFGLNGGEAGQVGHNRIERHDGTQENLDSTATAEMQPGDVFVIETPGGGGFG | not soluble
10 | MSLKMFEVPVSSVSISINSALLKGCRKFMVLGYGEIGKLAIKHLLSHKVECIYLIVRDKSKASDLEGEIVEVLDFNEKNQVINEIDCIVSCTAAPHTVVRNEDIKTEGETIHIYDLAVPRDVDKELSEKERVILKDIDEISKIDDKNKKIRKERMEEYKHIVEESIDEFLNWLKIREVSSKIRNIKIREGHHHHHH | not soluble
11 | MGSDKIHHHHHHMTEDQAFWNAFAPDYAAAEQASRLPIAHDVIAWLRSTQLLPAHSAVDLAAGTGRYAVQMMPWVQELTLIDWSSAMLAFAKERMHQQADTKAQFIVADWRKLHKPLNADMLFVSQLPTLKPQDLKMLMNWASQTVVLNFQTAQSDALLEQAASLLGLQLPPVYQADPARMISFKVWLTAQRIPFQSHSLTYEIEEQTTLSDLLPDLATPIGLKTAASLAKAITGHENTHVQVTDRLTYTYTQLVWHV | not soluble
12 | MGSDKIHHHHHHAQYTNIQTWGQKLYYNGSDYPGTFLKLKVAVANPRISGTGGKVVFYDSESSQYNYIEVKGVYQSSDARLKTNITPLNSGLGTILGLKPVSYNWKSETSQLRSAEAVPSKAFGFLAQEVAEVMPEIVTLSSTGDSLVDYTAVIPVLVQAVKELDATIQQLELQLDEKANLSDLQNNKNLTSKSLLSNAVMNQNTPNPFNSTTNISFTIPTSARSAFISICNLQGTQVKKFDIATRGEGSIMVSFSDLGVAGMYMYSLVVDGQLISTKRMLLVQ | not soluble
13 | MGSDKIHHHHHHMAIACVNTRASCGVEAPKVTVEVHLSNGLPAFNLVGLPEASVKEARERVRSALINAGFEFPMRRITVNLAPADLPKQGGRYDLPIAVGILAASEQIPANSLKNLEFVGELALSGQIRYCQGLLPAIIAAKRQDNTLILPLENRHDAELVGYQKVFFGSHLQSLAAFLQGQAPLPELDTHLEWVSEEQSYDSSQCLSDVIGQYQAKQALEIAAAGNHNLLMLGPPGTGKTMLASRMMALLPALSYEEALEVAAIHSVAGLDIKPQDFLKRPFRAPHHTSSSISLVGGGSIPKPGEISLAHRGVLFLDEVAEFPRKVLDCLREPMETGEVVISRAAAKLTFLSRFQLIAAMNPSPSGDIDANNRATPDQVQRYLARLSGPFLDRFDLTIEVPKLPAGTLTQAMAPSETSQDVAKRVRRARDIQLARSGVLNSELTGKQLKLFSGLTDADLIFLEQSVVKLGLSVRSFHRIQRVARTIADLEQSPNTERRHLAQALGYRAMDRLLARLSQQY | not soluble
14 | MSLDIRLLIMPLPDFALLPFGAFLDKLRFSADDEDYSQQRYCSWMVAGLSLEPVPSSSGAVLQVEAIADQLDLDLFDYLVVFGGRSAMATAALAPRYQALLRQAAKAGVKLVGVDNGAFLLAACGLLQGHKVVVHWRHEAEFRAAFPQLQLLREQLYCIDGNRITCAGGTAAIDLAVALLSRACGRTRALKGLADMLVDETREGHHHHHH | soluble
15 | MFKKVLGLRHWNNNVVKIPPPAAESGANASDVVVDTPEPYERILCQKILMGISTIDIIRNAIIKSCEQLNIEKERINELNEQNDKARSSLKSLVEFITEIGTTSSDIGCRMGDLNTSLTQINACIKEIQKIANQTNLIAINSAIEAARVGDAGRGFSVISKEVKNLSEDVKHSSKSVSTLTSVIKDNTARVSEVLDNQQPVIDNITTNINQIVESIGIVIDKSLSMKSVMQYISTVQFLNIVKVDHVIWKMEVYKLLLNKDINSKITMHDQCRLGKWYYGFEGQQFSNYYSFRSLEAPHKEVHTAGHSALNYFAAGDMNAMSQELDRMERSSNEVVNQLEMLAVDLLKETTL | not soluble
16 | MSLNILIVGGNGGIGLAMVKEALVRFPQAQIHATYRRTKSDYEHSALIWHQVDVTDETQVKNLSQAVNSIDWVINCVGMLHTPNKGPEKNLRMVEPDFFLQNIAVNTLPSMLLAKYFTPLLKCSGAPKFAVVSAKVGSISDNHLGGWYSYRASKAALNMFLKTMSIEWQRTLKNGVVLALHPGTTDTALSEPFQANVPEGKLFTPERVASDLMGQIVKAAPQDSGAFLTYDGEREGHHHHHH | soluble
17 | MGSDKIHHHHHHVLVLVLFTTVDRTPYKQMPYYTSMMKALDTFHVDVQHKKGDTLRAAWYKVALTPHTFPHPLAGYGLRKKAVSVNDTTFVRTFIFDNAKTRVAYVSLDLLIFPPALKDRVRAELETTYNLQVFLTATHTHSAPGGWEPKIAGRVLAGEYSDEYVALLFNAINECISKAIPRLQKVEQAYIRVSAPEAVQNRLKGADAPKDSFIRGIKFRNKSGEEACLFTFAAHANCLNSDVDYVSADYPGIVSAELEKRKWASFVSYAAGAVGSHAPTFETILDGKLRADTVSSILVEKLQETKAAYAYTNQLYYHRLPLFLRDAHLRVEKDIRIRPWVFNTILGKDIPDIQIIEIGETVLLGMPCDYSGELMPPLEKICADNQSNFMLSGFNGGYIGYITDDACYDWDRGETMDMNWFGPYNAAYLTEVNTVILKKVLTGE | not soluble
18 | MQLDVYGYVVETLYLAHQSGVARCGDTAVLHQRLVEHLAERWQMPDEGIWEVRGERRHFVHSKVMAWAVVDRTIRLVEAGALDAGLCALMELREAIRHEVCTRGFEP | not soluble
